Measurements from paper PMC6503952, “Nuclear actin interactome analysis links actin to KAT14 histone acetyl transferase and mRNA splicing” (Journal of Cell Science, 2019).

Target: Rabbit skeletal muscle actin (rabbit, UniProt P68135 1-377)
Assay: pull-down; purified His–KAT14 or His–GST (from a lysate) held on Ni-NTA agarose beads, washed with up to 500 mM NaCl, then incubated with a 4-fold amount of rabbit skeletal muscle actin in G-buffer (5 mM Tris-HCl pH 7.5, 0.2 mM ATP, 0.2 mM CaCl2, 0.5 mM DTT) for 3 h at +4°C; western blot
Details: both partners purified

B1: Recombinant human His-KAT14 (enzyme)
chain: MDSSIHLSSLISRHDDEATRTSTSEGLEEGEVEGETLLIVESEDQASVDLSHDQSGDSLNSDEGDVSWMEEQLSYFCDKCQKWIPASQLREQLSYLKGDNFFRFTCSDCSADGKEQYERLKLTWQQVVMLAMYNLSLEGSGRQGYFRWKEDICAFIEKHWTFLLGNRKKTSTWWSTVAGCLSVGSPMYFRSGAQEFGEPGWWKLVHNKPPTMKPEGEKLSASTLKIKAASKPTLDPIITVEGLRKRASRNPVESAMELKEKRSRTQEAKDIRRAQKEAAGFLDRSTSSTPVKFISRGRRPDVILEKGEVIDFSSLSSSDRTPLTSPSPSPSLDFSAPGTPASHSATPSLLSEADLIPDVMPPQALFHDDDEMEGDGVIDPGMEYVPPPAGSVASGPVVGVRKKVRGPEQIKQEVESEEEKPDRMDIDSEDTDSNTSLQTRAREKRKPQLEKDTKPKEPRYTPVSIYEEKLLLKRLEACPGAVAMTPEARRLKRKLIVRQAKRDRGLPLFDLDQVVNAALLLVDGIYGAKEGGISRLPAGQATYRTTCQDFRILDRYQTSLPSRKGFRHQTTKFLYRLVGSEDMAVDQSIVSPYTSRILKPYIRRDYETKPPKLQLLSQIRSHLHRSDPHWTPEPDAPLDYCYVRPNHIPTINSMCQEFFWPGIDLSECLQYPDFSVVVLYKKVIIAFGFMVPDVKYNEAYISFLFVHPEWRRAGIATFMIYHLIQTCMGKDVTLHVSASNPAMLLYQKFGFKTEEYVLDFYDKYYPLESTECKHAFFLRLRR
notes: KAT14, human; also called His-tagged KAT14; source: Sf9 (MultiBac baculovirus), purified (Ni-NTA, Superdex 200)
**Q.** Does B1 bind?
**A.** Result: binds
